From paper PMC5578738 (2017)

T1: Side-VI (Drosophila, UniProt Q0KI85)
T1 chain: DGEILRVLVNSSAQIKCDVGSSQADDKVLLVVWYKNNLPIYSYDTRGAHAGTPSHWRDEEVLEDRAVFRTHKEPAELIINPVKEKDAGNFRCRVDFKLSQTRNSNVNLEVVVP

B1: Beat-Vb (protein)
chain: LRVTDINVPQIVDFRDNVTLSCSYDISGHTLNSVKWYKNGKEFFRYSPLTPPTYIPFAVEGVQLIDDGNECNESSCRVELNLLGVKSSGVYRCEVSGDAPHFQLTARDANMTVEAL
B2: Beat-Va (protein)
chain: LFVTDISVPEIVDFRDNVTLSCSYDMRGHTLNSVKWYKDHEEFFRYSPLTSPIYMTFDVAGLQVLEGKYVCNESSCRLDLSLQGAKSTGLYKCEVSGDAPHFKLADKADNMTVAA

Target: T1, Side-VI
Assay: SPR equilibrium, monomer ECD

Binder | Kd [µM]
B1 | 2.3
B2 | 0.76
